Reference: ChEMBL document CHEMBL1671790, “A new β-carbonic anhydrase from Brucella suis, its cloning, characterization, and inhibition with sulfonamides and sulfamates, leading to impaired pathogen growth” (Bioorg Med Chem, 2011)

Key:
[1] = substrate: O=C=O; experiment: Activity at human carbonic anhydrase VA by spectrophotometry at pH 7.5
[2] = substrate: O=C=O; experiment: Ratio of kcat to Km for human carbonic anhydrase VA
[3] = substrate: O=C=O; experiment: Ratio of kcat to Km for human carbonic anhydrase XII
[4] = substrate: O=C=O; experiment: Activity at human carbonic anhydrase XII by spectrophotometry at pH 7.5

B1: Carbonic anhydrase 5A, mitochondrial (Homo sapiens), P35218 (protein)
chain: MLGRNTWKTSAFSFLVEQMWAPLWSRSMRPGRWCSQRSCAWQTSNNTLHPLWTVPVSVPGGTRQSPINIQWRDSVYDPQLKPLRVSYEAASCLYIWNTGYLFQVEFDDATEASGISGGPLENHYRLKQFHFHWGAVNEGGSEHTVDGHAYPAELHLVHWNSVKYQNYKEAVVGENGLAVIGVFLKLGAHHQTLQRLVDILPEIKHKDARAAMRPFDPSTLLPTCWDYWTYAGSLTTPPLTESVTWIIQKEPVEVAPSQLSAFRTLLFSALGEEEKMMVNNYRPLQPLMNRKVWASFQATNEGTRS
kcat [1]: 2.9 ×10⁵ /s
kcat/Km [2]: 2.9 ×10⁷ /M/s

B2: Carbonic anhydrase 12 (Homo sapiens), O43570 (protein)
chain: MPRRSLHAAAVLLLVILKEQPSSPAPVNGSKWTYFGPDGENSWSKKYPSCGGLLQSPIDLHSDILQYDASLTPLEFQGYNLSANKQFLLTNNGHSVKLNLPSDMHIQGLQSRYSATQLHLHWGNPNDPHGSEHTVSGQHFAAELHIVHYNSDLYPDASTASNKSEGLAVLAVLIEMGSFNPSYDKIFSHLQHVKYKGQEAFVPGFNIEELLPERTAEYYRYRGSLTTPPCNPTVLWTVFRNPVQISQEQLLALETALYCTHMDDPSPREMINNFRQVQKFDERLVYTSFSQVQVCTAAGLSLGIILSLALAGILGICIVVVVSIWLFRRKSIKKGDNKGVIYKPATKMETEAHA
kcat/Km [3]: 3.5 ×10⁷ /M/s
kcat [4]: 4.2 ×10⁵ /s
